In article PMC7585440, “Sclerostin inhibits Wnt signaling through tandem interaction with two LRP6 ectodomains” (Nature Communications, 2020):
Bridges are numbered along the chain shown (N, C = ends). Where no end group is shown, it is not given here.

T1: human LRP6 E1E2 (P21-P630) with a C-terminal 10x His tag (human, UniProt O75581 21-630, labeled with the dye NT-647 in the MST experiments (legends: Cy-5 dye-labeled))
T1 construct: low-density lipoprotein receptor-related protein 6 (LRP6), human, ectodomains E1 and E2, residues P21-P630; also called LPR6 E1E2; source: High Five insect cells, secreted, purified (Ni-NTA, HiTrapQ, SEC); for the crystal co-expressed with SOSTtr177
T1 sequence (looked up): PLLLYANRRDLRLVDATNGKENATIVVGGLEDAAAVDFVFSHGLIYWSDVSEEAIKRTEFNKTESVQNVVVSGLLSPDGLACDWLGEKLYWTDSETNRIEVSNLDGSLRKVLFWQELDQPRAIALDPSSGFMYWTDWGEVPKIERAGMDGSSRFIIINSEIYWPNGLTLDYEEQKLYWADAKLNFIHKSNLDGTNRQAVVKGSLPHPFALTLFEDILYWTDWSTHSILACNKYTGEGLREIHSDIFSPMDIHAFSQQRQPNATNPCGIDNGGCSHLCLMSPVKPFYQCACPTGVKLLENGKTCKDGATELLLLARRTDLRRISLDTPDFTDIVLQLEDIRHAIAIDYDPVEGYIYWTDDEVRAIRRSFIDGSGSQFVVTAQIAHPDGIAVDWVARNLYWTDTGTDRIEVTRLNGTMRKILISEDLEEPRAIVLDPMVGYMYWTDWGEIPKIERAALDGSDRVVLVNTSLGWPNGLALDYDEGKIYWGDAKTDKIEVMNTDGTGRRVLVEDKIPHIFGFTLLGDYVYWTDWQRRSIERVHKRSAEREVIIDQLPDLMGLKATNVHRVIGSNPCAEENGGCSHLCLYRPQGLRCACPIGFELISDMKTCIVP

T2: human LRP6 E1E2 with a C-terminal 10× His tag, labeled with the dye NT-647 (human, UniProt O75581 21-630, dye NT-647 (Monolith NT Protein Labeling kit))
T2 construct: Low-density lipoprotein receptor-related protein 6 (LRP6), human, ectodomains E1 and E2; the limits P21-P630 are printed for the co-expression construct; the MST construct was cloned into another vector (pAcGP67A); also called Labeled LRP6 E1E2; source: High Five insect cells (pAcGP67A), purified (Ni-NTA, HiTrapQ, SEC), no tag cleavage; not shown: His10, C-terminal, kept
T2 sequence (looked up): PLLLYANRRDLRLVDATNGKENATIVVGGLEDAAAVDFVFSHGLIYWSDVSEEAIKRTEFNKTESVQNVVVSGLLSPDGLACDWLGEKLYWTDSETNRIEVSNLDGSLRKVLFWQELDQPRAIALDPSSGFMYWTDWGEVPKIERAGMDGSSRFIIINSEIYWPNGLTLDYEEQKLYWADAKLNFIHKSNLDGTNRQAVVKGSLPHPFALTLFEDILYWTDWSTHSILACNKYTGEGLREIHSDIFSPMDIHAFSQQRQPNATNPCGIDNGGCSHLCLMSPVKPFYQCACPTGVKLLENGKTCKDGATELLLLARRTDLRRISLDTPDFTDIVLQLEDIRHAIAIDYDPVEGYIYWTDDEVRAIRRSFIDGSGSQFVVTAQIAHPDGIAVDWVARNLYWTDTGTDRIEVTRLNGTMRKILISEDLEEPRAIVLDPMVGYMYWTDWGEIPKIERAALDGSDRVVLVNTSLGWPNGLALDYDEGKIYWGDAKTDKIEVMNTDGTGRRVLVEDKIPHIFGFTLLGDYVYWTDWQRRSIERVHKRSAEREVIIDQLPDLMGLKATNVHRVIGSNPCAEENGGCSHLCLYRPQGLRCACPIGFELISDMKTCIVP

T3: human LRP6 E1 with a C-terminal 10× His tag, labeled with the dye NT-647 (human, dye NT-647 (Monolith NT Protein Labeling kit))
T3 chain: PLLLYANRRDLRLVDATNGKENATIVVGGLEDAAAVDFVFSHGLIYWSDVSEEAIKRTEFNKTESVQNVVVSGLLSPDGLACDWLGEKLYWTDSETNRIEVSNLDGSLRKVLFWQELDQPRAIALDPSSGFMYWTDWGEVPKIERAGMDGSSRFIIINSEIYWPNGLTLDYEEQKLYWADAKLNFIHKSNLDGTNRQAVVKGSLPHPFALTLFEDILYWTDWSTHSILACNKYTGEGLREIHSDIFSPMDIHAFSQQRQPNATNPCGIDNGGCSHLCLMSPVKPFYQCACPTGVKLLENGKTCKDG

T4: human LRP6 E1E2 (P21–P630) with a C-terminal 10× His tag (human, UniProt O75581 21-630)
T4 construct: Low-density lipoprotein receptor-related protein 6 (LRP6), human, ectodomains E1 and E2, residues P21-P630; Unlabelled form: crystal, SEC-MALS and fluorescence-SEC; An anti-His-tag antibody was used for the western blots of the fluorescence-SEC experiment; also called LRP6 ectodomains 1 and 2; source: High Five insect cells (baculovirus), secreted, purified (Ni-NTA, HiTrapQ, SEC); co-expressed …
T4 sequence (looked up): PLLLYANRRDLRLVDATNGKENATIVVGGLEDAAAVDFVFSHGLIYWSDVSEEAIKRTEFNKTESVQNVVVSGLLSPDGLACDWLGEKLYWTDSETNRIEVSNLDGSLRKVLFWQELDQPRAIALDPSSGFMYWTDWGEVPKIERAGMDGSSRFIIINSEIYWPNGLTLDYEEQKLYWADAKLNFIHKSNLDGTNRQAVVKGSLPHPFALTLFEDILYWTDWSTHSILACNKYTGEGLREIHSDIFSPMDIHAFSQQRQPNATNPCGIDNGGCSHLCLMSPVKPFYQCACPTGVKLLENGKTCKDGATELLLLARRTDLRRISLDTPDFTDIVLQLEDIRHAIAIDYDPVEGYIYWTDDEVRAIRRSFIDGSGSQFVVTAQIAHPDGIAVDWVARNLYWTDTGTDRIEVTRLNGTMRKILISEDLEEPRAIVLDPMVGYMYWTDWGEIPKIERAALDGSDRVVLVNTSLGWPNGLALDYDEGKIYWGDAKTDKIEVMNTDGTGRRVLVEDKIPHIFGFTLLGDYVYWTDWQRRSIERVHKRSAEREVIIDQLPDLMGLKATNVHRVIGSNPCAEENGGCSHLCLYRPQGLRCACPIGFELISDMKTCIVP

T5: LRP6 E1E2 H404K (human, UniProt O75581 21-630, H404K)
T5 construct: Low-density lipoprotein receptor-related protein 6 (LRP6), human, ectodomains E1 and E2 (parent construct P21-P630) with H404K; Mutation introduced into the LRP6 E1E2 of the crystallised complex; also called LRP6 E1E2 with the H404K mutation; source: purified as a complex with SOST_(tr177) N175K
T5 sequence (looked up): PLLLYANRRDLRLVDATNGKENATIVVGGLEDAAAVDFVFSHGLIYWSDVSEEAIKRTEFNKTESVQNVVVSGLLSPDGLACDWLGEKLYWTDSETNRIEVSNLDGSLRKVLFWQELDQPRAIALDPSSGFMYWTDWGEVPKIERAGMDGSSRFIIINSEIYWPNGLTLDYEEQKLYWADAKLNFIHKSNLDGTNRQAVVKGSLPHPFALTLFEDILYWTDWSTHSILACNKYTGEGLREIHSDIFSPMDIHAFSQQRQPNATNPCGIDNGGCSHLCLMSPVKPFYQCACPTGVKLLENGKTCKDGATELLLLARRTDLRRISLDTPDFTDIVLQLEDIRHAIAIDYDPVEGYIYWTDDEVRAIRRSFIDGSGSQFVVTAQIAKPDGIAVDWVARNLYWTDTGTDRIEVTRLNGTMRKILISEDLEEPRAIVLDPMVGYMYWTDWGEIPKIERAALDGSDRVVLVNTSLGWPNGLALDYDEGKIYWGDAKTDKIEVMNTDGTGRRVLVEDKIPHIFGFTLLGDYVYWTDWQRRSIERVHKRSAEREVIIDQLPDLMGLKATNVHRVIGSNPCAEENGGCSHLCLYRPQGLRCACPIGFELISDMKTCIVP


What was measured:
Conditions in all cases: both partners purified
[1] = molecular target: T1, human LRP6 E1E2 (P21-P630) with a …; test: MST; labeled LRP6 E1E2 or LRP6 E1 (~5 nM) titrated with unlabeled Smo-SOST, MBP-SOST, tags or peptides; 20 mM Tris-Cl pH 7.0, 200 mM NaCl, 0.5 mg/ml BSA, 0.05% Tween 20; 22 °C; three independent experiments
[2] = molecular target: T2, human LRP6 E1E2 with a C-terminal 10× …; test: MST; LRP6 E1E2 or E1 labeled with NT-647 at ~5 nM, unlabeled SOST proteins or peptides titrated; 20 mM Tris-Cl pH 7.0, 200 mM NaCl, 0.5 mg/ml BSA, 0.05% Tween 20; 22 °C; Monolith NT.115 Pico
[3] = molecular target: T3, human LRP6 E1 with a C-terminal 10× His …; test: as above
[4] = molecular target: T4, human LRP6 E1E2 (P21–P630) with a …; test: SEC-MALS; purified complex at 1 mg/ml on Superdex 200 increase 5/150 GL; 50 mM Tris pH 8.5, 150 mM NaCl; protein conjugate method
[5] = molecular target: T5, LRP6 E1E2 H404K; test: cross-linking; purified LRP6 E1E2 H404K–SOST_(tr177) N175K complex with BS3 at room temperature for 30 min; ~90 kDa band cut out, chymotrypsin, LC-MS/MS

Row | Binder | Kd [2] [µM] | further results
1 | human WT SOST (Q24-Y213) with an N-terminal His6-MBP tag (natural protein, sclerostin (SOST), human, residues Q24-Y213; also called MBP-SOST; MBP-SOST WT; source: High Five insect cells, secreted, purified; tag not cleaved; not shown: His6, N-terminal, kept; MBP, N-terminal, kept) QGWQAFKNDATEIIPELGEYPEPPPELENNKTMNRAENGGRPPHHPFETKDVSEYSCRELHFTRYVTDGPCRSAKPVTELVCSGQCGPARLLPNAIGRGKWWRPSGPDFRCIPDRYRAQRVQLLCPGGEAPRARKVRLVASCKCKRLTRFHNQSELKDFGTEAARPQKGRKPRPRARSAKANQAELENAY | – | Kd [1]: 0.17 µM
2 | SOST∆loop2 with an N-terminal His6-SUMO tag (natural protein) QGWQAFKNDATEIIPELGEYPEPPPELENNKTMNRAENGGRPPHHPFETKDVSEYSCRELHFTRYVTDGPCRSAKPVTELVCSGQCGPAGSGGSGPDFRCIPDRYRAQRVQLLCPGGEAPRARKVRLVASCKCKRLTRFHNQSELKDFGTEAARPQKGRKPRPRARSAKANQAELENAY | 1 | –
3 | CLLPNAIGRGKWGC (disulfide 1-14 (inferred), first cysteine of the printed peptide, for the ring-closing disulfide; last two residues of the printed peptide, with the second cysteine of the disulfide; source: synthetic peptide (Peptron)) [disulfide-bonded, circularized SOST loop 2 peptide (CLLPNAIGRGKWGC)] | 5.5 | Kd [3]: 5.2 µM
4 | human SOST C-terminal tail peptide (residues 170–213) (peptide) not shown | 5.8 | –
5 | human SOST_(tr177) (Q24-S177) (domain or fragment, UniProt Q9BQB4 24-177, looked up, Sclerostin (SOST), human, residues Q24-S177; N175 not glycosylated in this construct; also called crystallization construct; not shown: His6, N-terminal, cleaved; MBP, N-terminal, cleaved) QGWQAFKNDATEIIPELGEYPEPPPELENNKTMNRAENGGRPPHHPFETKDVSEYSCRELHFTRYVTDGPCRSAKPVTELVCSGQCGPARLLPNAIGRGKWWRPSGPDFRCIPDRYRAQRVQLLCPGGEAPRARKVRLVASCKCKRLTRFHNQS | – | stoichiometry N [4]: 1
6 | SOST_(tr177) N175K (domain or fragment, human, UniProt Q9BQB4 24-177, looked up, Sclerostin (SOST), human, residues Q24-S177 (parent SOST_(tr177)) with N175K; also called SOSTtr177 with the N175K mutation; source: purified as a complex with LRP6 E1E2 H404K) QGWQAFKNDATEIIPELGEYPEPPPELENNKTMNRAENGGRPPHHPFETKDVSEYSCRELHFTRYVTDGPCRSAKPVTELVCSGQCGPARLLPNAIGRGKWWRPSGPDFRCIPDRYRAQRVQLLCPGGEAPRARKVRLVASCKCKRLTRFHKQS | – | binding result [5]: binds
7 | SOST_(tr169) with an N-terminal His6-SUMO tag (domain or fragment, human, UniProt Q9BQB4 24-169, looked up, has neither the HNQS region nor the basic-residue cluster; also called Smo-SOST mutant tr169; source: High Five insect cells (pAcGP67A), purified (Ni-NTA, HiTrapQ, SEC), no tag cleavage; not shown: His6, N-terminal, kept; SUMO, N-terminal, kept) QGWQAFKNDATEIIPELGEYPEPPPELENNKTMNRAENGGRPPHHPFETKDVSEYSCRELHFTRYVTDGPCRSAKPVTELVCSGQCGPARLLPNAIGRGKWWRPSGPDFRCIPDRYRAQRVQLLCPGGEAPRARKVRLVASCKCKR | 0.9 | –
